Laboratory results as given in patent US20070036810A1, “Cyclic amp response element activator proteins and uses related thereto” (priority 2003, published 2007).

Legend:
[1] = test system: human IL-8 promoter; assay: pGL2-IL-8p-Luc reporter inducibility in HEK 293 cells; type: cell-based; conditions: expression construct co-transfected into HEK 293 cells, 48 hours post transfection
Procedure: A luciferase reporter controlled by a 1.5 kB IL-8 promoter containing fragment of human IL-8 promoter was tested for inducibility by known regulators of cytokine-mediated gene expression. pNF-κB-Luc (BD Biosciences) and pGL2-IL-8p-Luc reporters were co-transfected into HEK 293 cells with expression constructs encoding known activators of the NF-κB pathway, truncated MEKK (AA 360-672) (Stratagene) and a full length TRAF6 cDNA made according to conventional methods using a proprietary clone collection. Cells co-transfected with empty pCMV-Sport6 vector were either left untreated or treated with TNFα (50 ng/ml, for 16 hours). Luciferase activity was measured 48 hours post transfection. The pNF-κB-Luc reporter was used as a positive control.

[2] = molecular target: T1, ATF2-GAL4 fusion molecule (Homo sapiens, UniProt P15336); assay: In vivo kinase assay, ATF2-GAL4 fusion in HLR cells; type: cell-based; conditions: 40 hours after transfection
T1 construct: host or cells: HLR cell line (5x GAL4 element-luciferase reporter)
Procedure: For in vivo kinase assay, activation domains of CREB or ATF2 transcription factors fused with the yeast GAL4 DNA binding domain (1-147 Amino Acids) constructs are used (Stratagene, PathDetect In Vivo Signal Transduction Pathway trans-reporting Systems). The HLR cell line that contains a 5× GAL4 DNA binding element and TATA box driving luciferase reporter is used per manufacturer's protocol (Stratagene). 10^4 HLR cells are split into each well of 96 well tissue culture plates. After 16 hours, cells are transfected with 100 ng of Creb-GAL4 or ATF2-GAL4 fusion constructs, 30 ng of Renilla luciferase control plasmid together with 100 ng of pCMVSPORT6, pCMVSPORT-CREAP1, pFC-PKA or pFC-MEKK (Stratagene) activator plasmids respectively. Transfection is done with Fugene6 reagent (Roche Molecular Biochemicals, Basel, Switzerland) according to the manufacturers manual. Forty hours after transfection, a Dual-Glo Luciferase assay (Promega) is conducted using the manufacturer's protocol.
As CREAP1 strongly activates CRE promoter transcription, we next investigated whether CREAP1 works through the CREB pathway. […]

[3] = test system: CRE-like element of IL-8 promoter (pCREL-Luc); assay: pCREL-Luc reporter (concatamerized CRE-like site) assay; type: cell-based; conditions: minimal promoter carrying concatamerized CRE-like site; data not shown
From the text: The pIL-8Luc reporter was constructed by insertion of the −1491 to +43 region of the human IL-8 gene into pGL3Basic vector (Promega, Inc). PCR was used to generate a wild type minimal IL-8 promoter as well as point mutants. Mutations in AP-1, C/EBP, NF-κB were as described by Wu et al. (Wu et al. J. Biol. Chem., 272:2396-2403 (1997)). The sequence of a putative CRE-like site TGACATAA was mutated to TCGATCAA. Promoter constructs carrying 6 concatamerised copies of CRE-like response element (pCREL-Luc) or 5 copies of CRE-like element TGACACAA found in human PEPCK and CAPL promoters (pCREL2-Luc) were prepared by ligating PCR amplified sequences into pTAL-Luc (BD Biosciences). All techniques were performed using conventional methods.
In order to determine if the “CRE-like element” was directly responsive to CREAP1 or MAP3K11, the ability of both genes to activate a minimal promoter carrying concatamerized CRE-like site (pCREL-Luc) was examined. In addition, we studied the effect of PMA known inducer of AP-1.

[4] = test system: secreted IL-8 protein from HeLa cells; assay: IL-8 Elisa assay in HeLa cells; type: cell-based; conditions: after transfection
Procedure: HeLa cells are transfected with DNA samples selected from the group of sequence verified and confirmed hits at 100 ng per well in 96 well plates (Costar) using the protocol described above. DNA samples designated as co-activators are co-transfected at 25 ng per well. Empty vector pCMV-Sport6 is used as a negative control. 72 hours post-transfection IL-8 content is measured in the cell growth media in prediluted aliquots corresponding to 1 to 5 μl of conditioned growth media using an IL-8 Elisa kit (Sigma) following the provided protocol. As a positive control, growth media is collected from the cells transfected with empty vector and treated with IL-1β and TNFα (R&D Systems) at 5 ng/ml and 50 ng/ml respectively for 16 hours prior to collection of the growth media for the IL-8 assay.

[5] = test system: Drosophila CRE (CRE-hsp-Luc reporter); assay: CRE-hsp-Luc reporter assay in Drosophila S2 cells; type: cell-based, Drosophila melanogaster; conditions: 48 hours post-transfection
From the text: The amplified product was inserted into the Drosophila P-element transformation vector, pUAST (Brand and Perrimon, Development 118:401-415 (1993)). The final construct pUAS-dCREAP was used for transfection experiments in Drosophila melanogaster Schneider cells (S2). A firefly luciferase reporter was created which contained 4 copies of the drosophila CRE enhancer element (SEQ ID 39) (Eresh, S. et. Al. EMBO J. 16:2014-2022 (1997)) followed by hsp70 minimal promoter.
The S2 cells were transfected in 6 well plates (Costar) by the CaPO4 method (Bunch, T. and Goldstein, L. Nucleic Acids Res. 17:9761-9782 (1989)). A total of 25 ug of DNA was transfected into a 6-well dish containing 4 mls of cells (˜1×10^6 cells/ml). The transfection mix was removed after 18 hr and the luciferase assays were performed 48 hrs later. The UAS-transgenes were activated by co-transfection with the Actin promoter-Gal4 plasmid provided by Dr. Norbert Perrimon. The transfection efficiency was normalized co-transfection with hsp^mln Renilla luciferase driven by minimal heat shock promoter (made according to conventional methods). Luciferase activity was measured using the Dual-luciferase assay kit (Promega). […] Data were calculated as fold induction compared to the reporter gene's activity measured in the cells designated as negative control.

T1 sequence (P15336 with tags, fused parts or gaps limits assumed): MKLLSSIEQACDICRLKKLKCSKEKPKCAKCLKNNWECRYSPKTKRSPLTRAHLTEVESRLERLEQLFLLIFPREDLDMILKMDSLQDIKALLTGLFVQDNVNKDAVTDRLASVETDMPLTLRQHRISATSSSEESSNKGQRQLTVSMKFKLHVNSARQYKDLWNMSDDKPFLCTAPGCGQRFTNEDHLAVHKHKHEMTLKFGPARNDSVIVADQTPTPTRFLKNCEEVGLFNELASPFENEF

B1: MEKK: truncated MEKK (AA 360-672) expression construct (Stratagene), known activator of the NF-κB pathway (protein, UniProt Q13233 360-672, looked up, fragment)
chain: FVMLRVFQLEPSDPMLWRKTLKNFEVESLFQKYHSRRSSRIKAPSRNTIQKFVSRMSNSHTLSSSSTSTSSSENSIKDEEEQMCPICLLGMLDEESLTVCEDGCRNKLHHHCMSIWAEECRRNREPLICPLCRSKWRSHDFYSHELSSPVDSPSSLRAAQQQTVQQQPLAGSRRNQESNFNLTHYGTQQIPPAYKDLAEPWIQVFGMELVGCLFSRNWNVREMALRRLSHDVSGALLLANGESTGNSGGSSGSSPSGGATSGSSQTSISGDVVEACCSVLSMVCADPVYKVYVAALKTLRAMLVYTPCHSLAE
[1]
  increase of IL-8 promoter-reporter activity: 16 times
[2]
  stimulation of ATF2 fusion: more than 100 fold

B2: MAP3K11: Mitogen-Activated Protein Kinase Kinase Kinase 11 expression construct, AP-1 activator (protein, UniProt Q16584 1-847, looked up)
Mitogen-activated protein …: MEPLKSLFLKSPLGSWNGSGSGGGGGGGGGRPEGSPKAAGYANPVWTALFDYEPSGQDELALRKGDRVEVLSRDAAISGDEGWWAGQVGGQVGIFPSNYVSRGGGPPPCEVASFQELRLEEVIGIGGFGKVYRGSWRGELVAVKAARQDPDEDISVTAESVRQEARLFAMLAHPNIIALKAVCLEEPNLCLVMEYAAGGPLSRALAGRRVPPHVLVNWAVQIARGMHYLHCEALVPVIHRDLKSNNILLLQPIESDDMEHKTLKITDFGLAREWHKTTQMSAAGTYAWMAPEVIKASTFSKGSDVWSFGVLLWELLTGEVPYRGIDCLAVAYGVAVNKLTLPIPSTCPEPFAQLMADCWAQDPHRRPDFASILQQLEALEAQVLREMPRDSFHSMQEGWKREIQGLFDELRAKEKELLSREEELTRAAREQRSQAEQLRRREHLLAQWELEVFERELTLLLQQVDRERPHVRRRRGTFKRSKLRARDGGERISMPLDFKHRITVQASPGLDRRRNVFEVGPGDSPTFPRFRAIQLEPAEPGQAWGRQSPRRLEDSSNGERRACWAWGPSSPKPGEAQNGRRRSRMDEATWYLDSDDSSPLGSPSTPPALNGNPPRPSLEPEEPKRPVPAERGSSSGTPKLIQRALLRGTALLASLGLGRDLQPPGGPGRERGESPTTPPTPTPAPCPTEPPPSPLICFSLKTPDSPPTPAPLLLDLGIPVGQRSAKSPRREEEPRGGTVSPPPGTSRSAPGTPGTPRSPPLGLISRPRPSPLRSRIDPWSFVSAGPRPSPLPSPQPAPRRAPWTLFPDSDPFWDSPPANPFQGGPQDCRAQTKDMGAQAPWVPEAGP
[3]
  activation of pCREL-Luc: neither by MAP3K11
[4]
  accumulation of secreted IL-8 protein: induced small increases

B3: dCREAP: Drosophila CREAP gene product, 797 amino acids, SEQ ID NO 27; expressed from pUAS-dCREAP (protein)
chain: MANPRKFSEKIALQKQKQAEGTAEFERIMKEVYATKRDEPPANQKILDGLVGGQEVSQSSPGAGNGTGGGGSGSGSGASGGGASPDGLGGGGGSPTAYRESRGRSVGVGPMRRPSERKQDRSPYGSSSTQQTLDNGQLNPHLLGPPTAESLWRRSSSDSALHQSALVAGFNSDVNSMGANYQQQQHQQQQQPGQPRSHSPHHGINRTMSPQAQRRKSPLLQPHQLQLQQLQQQQQQMQHQHQLHQQLQMQQLQQHQQQHQQQQQQQNTPYNNAKFTNPVFRPLQDQVNFANTGSLPDLTALQNYGPQQQQQQSQQQPSQQQQQLQQTLSPVMSPHNHRRERDQSPSPFSPAGGGGGAGPGSPYQQQQHSPTGNTQQQQQQHQQPSNSPHLSFTNLATTQAAVTTFNPLPTLGPHNATDYRQPPNPPSPRSSPGLLSSVSATDLHSSAPASPIRQQQQAHQQQQQQQQAQQQQQQFDNSYNSLNTSFHNQFEIFSLGDSNSSPEQQGFANNFVALDFDDLSGGGGGGPSGGGGSNGGGLTNGYNKPEMLDFSELSGSPEASGNNNHMRRGVSNLNNNGLSNGVVGSTHNGSTNLNGAGNNNSSSGGGTAQDPLGITTSPVPSPLGCPSSPLPIPIPMSAQSSPQQQHHHHQQQQQQHHQQQHHQQQQLSLSLHHSPHHSPMHSPHHGNSPLSSSSPVSHNACSNSNVVMNHQQQQQQHHHQQHHHQGSSQSHTPTTANIPSIIFSDYSSNADYTREIFDSLDLDLGQMDVAGLQMLSDQNPIMIADPNIEDSFRRDLN
modifications: drosophila melanogaster
[5]; CRE-hsp-Luc reporter (4 copies of Drosophila CRE)
  Fold Activation: 136.04
[5]; hsp-Luc reporter without CRE
  Fold Activation: 0.96
